We go through 167 variants from the Human Domainome abundance scans (Beltran et al. 2025).

± gives the uncertainty stated by the source.

Sequences and labels used below:
B1: Dynamin-binding protein, residues 242 to 304; numbered along this chain, Q6XZF7 (parent)
chain: EEPGTYGVALYRFQALEPNELDFEVGDKIRILATLEDGWLEGSLKGRTGIFPYRFVKLCPDTR

The variants in this data set derive from B1. In words: abundance fitness (aPCA) (normalised: wild type 0, dead -1); higher = more abundant; growth selection in yeast, the domain comes from the species named. The conditions noted are these: Homo sapiens.
On to K57V, for which the abundance fitness was -0.637 ± 0.068.

Turning to V56S, the abundance fitness is -0.719 ± 0.08.

Regarding V56H, the abundance fitness was -0.696 ± 0.12.

Take F13L: the abundance fitness is -0.74 ± 0.11.

With F13A, the abundance fitness is -0.804 ± 0.16.

On to F13H, for which the abundance fitness amounted to 0.559 ± 0.059.

Turning to G7V, the abundance fitness was determined as 0.006 ± 0.049.

For G7P, the abundance fitness is -0.86 ± 0.25.

Regarding G7F, the abundance fitness was -0.734 ± 0.092.

G7Q: the abundance fitness is -0.258 ± 0.22.

Take G7Y: the abundance fitness is -0.661 ± 0.1.

Take G7S: the abundance fitness is -0.292 ± 0.051.

In the case of R12V, the abundance fitness was -0.508 ± 0.075.

R12K: the abundance fitness is -0.276 ± 0.17.

As for R12C, the abundance fitness was -0.477 ± 0.08.

On to R12H, for which the abundance fitness was -0.446 ± 0.11.

On to R12F, for which the abundance fitness was -0.91 ± 0.13.

E24N: the abundance fitness was -0.032 ± 0.059.

For E24F, the abundance fitness is -0.301 ± 0.067.

Turning to E24A, the abundance fitness was -0.593 ± 0.086.

As for E24L, the abundance fitness is -0.491 ± 0.082.

As for E24R, the abundance fitness is -0.445 ± 0.07.

Consider G26C, for which the abundance fitness is -0.334 ± 0.054.

In the case of G26A, the abundance fitness was -0.86 ± 0.15.

Turning to G26P, the abundance fitness is -1.07 ± 0.22.

Take G26Q: the abundance fitness is -0.061 ± 0.2.

As for G26D, the abundance fitness was -0.568 ± 0.091.

For the variant I50Q, the abundance fitness was -0.093 ± 0.12.

Turning to I50E, the abundance fitness is -0.341 ± 0.15.

Turning to I50L, the abundance fitness is -0.383 ± 0.061.

I50G: the abundance fitness was -0.823 ± 0.091.

As for I50C, the abundance fitness was -0.275 ± 0.055.

As to I50P, the abundance fitness is -0.973 ± 0.27.

Take I50D: the abundance fitness is -0.91 ± 0.14.

In the case of I50A, the abundance fitness is -0.379 ± 0.08.

As to I50W, the abundance fitness is -0.693 ± 0.19.

Take I50N: the abundance fitness is -0.43 ± 0.077.

D37L: the abundance fitness is -0.663 ± 0.12.

Regarding D37I, the abundance fitness is -0.89 ± 0.2.

In the case of D37C, the abundance fitness is -0.195 ± 0.059.

On to D37A, for which the abundance fitness is -0.452 ± 0.074.

With N19C, the abundance fitness was -0.518 ± 0.074.

For the variant N19A, the abundance fitness is -0.18 ± 0.06.

On to N19I, for which the abundance fitness is -0.644 ± 0.087.

N19Y: the abundance fitness is -0.299 ± 0.059.

As to N19S, the abundance fitness was -0.275 ± 0.05.

As to K28N, the abundance fitness was -0.418 ± 0.086.

With K28F, the abundance fitness is -0.596 ± 0.096.

Consider K28R, for which the abundance fitness is -0.05 ± 0.053.

Turning to K28G, the abundance fitness was -0.711 ± 0.074.

Take K28Y: the abundance fitness is -0.519 ± 0.12.

Regarding K28S, the abundance fitness is -0.535 ± 0.074.

Turning to K28Q, the abundance fitness was -0.604 ± 0.2.

In the case of K28L, the abundance fitness was -0.57 ± 0.11.

For the variant K28V, the abundance fitness was -0.205 ± 0.056.

For K28D, the abundance fitness is -0.799 ± 0.15.

Turning to K28T, the abundance fitness is -0.282 ± 0.08.

For the variant D27I, the abundance fitness is -0.786 ± 0.13.

Turning to D27S, the abundance fitness is -0.695 ± 0.078.

As to D27Q, the abundance fitness was -0.723 ± 0.23.

In the case of D27T, the abundance fitness is -0.656 ± 0.18.

In the case of D27G, the abundance fitness is -0.776 ± 0.083.

Take D27F: the abundance fitness is -0.799 ± 0.11.

For the variant W39K, the abundance fitness is -0.395 ± 0.17.

In the case of W39I, the abundance fitness is -0.546 ± 0.075.

With W39G, the abundance fitness was -0.714 ± 0.092.

For the variant W39Y, the abundance fitness is -0.135 ± 0.066.

As to W39N, the abundance fitness was -0.406 ± 0.068.

In the case of W39P, the abundance fitness was -0.738 ± 0.15.

Consider L10A, for which the abundance fitness is -0.761 ± 0.14.

L10K: the abundance fitness is -0.384 ± 0.21.

Consider L10N, for which the abundance fitness is -0.827 ± 0.11.

Take L10H: the abundance fitness is -0.566 ± 0.12.

In the case of L10M, the abundance fitness worked out at 0.048 ± 0.094.

In the case of E1I, the abundance fitness was found to be 0.005 ± 0.077.

Turning to E1S, the abundance fitness is -0.112 ± 0.068.

As to E1R, the abundance fitness was -0.063 ± 0.12.

For E1C, the abundance fitness is -0.189 ± 0.11.

For E1V, the abundance fitness was -0.001 ± 0.052.

As for F23L, the abundance fitness was -0.136 ± 0.065.

For F23K, the abundance fitness was -0.13 ± 0.17.

Turning to F23C, the abundance fitness is -0.717 ± 0.09.

F23Q: the abundance fitness was -0.767 ± 0.39.

As for F23P, the abundance fitness is -1.09 ± 0.31.

In the case of F23T, the abundance fitness is -0.775 ± 0.12.

For G4D, the abundance fitness was -0.004 ± 0.064.

On to G4Q, for which the abundance fitness worked out at 0.059 ± 0.15.

Take G4K: the abundance fitness was -0.211 ± 0.15.

Take G4V: the abundance fitness turned out to be 0.008 ± 0.052.

Regarding G46V, the abundance fitness was -0.6 ± 0.041.

For G46A, the abundance fitness is -0.647 ± 0.051.

As to G46D, the abundance fitness was -0.444 ± 0.047.

For G46W, the abundance fitness is -0.725 ± 0.12.

For G46Q, the abundance fitness is -0.753 ± 0.16.

For C59H, the abundance fitness is -0.227 ± 0.1.

Take C59G: the abundance fitness is -0.225 ± 0.048.

As for C59W, the abundance fitness is -0.324 ± 0.11.

On to C59Y, for which the abundance fitness is 0.007 ± 0.051.

For C59K, the abundance fitness was -0.086 ± 0.22.

For C59E, the abundance fitness is -0.109 ± 0.11.

Turning to C59P, the abundance fitness is -0.546 ± 0.17.

G49H: the abundance fitness was -0.807 ± 0.17.

In the case of G49N, the abundance fitness is -0.499 ± 0.094.

As for G49V, the abundance fitness was -0.782 ± 0.088.

Consider G49S, for which the abundance fitness was -0.504 ± 0.088.

With A15H, the abundance fitness is -0.472 ± 0.13.

Regarding A15N, the abundance fitness was -0.588 ± 0.11.

Take A15Y: the abundance fitness was -0.774 ± 0.11.

As to A15V, the abundance fitness is -0.608 ± 0.11.

Turning to D61A, the abundance fitness is -0.095 ± 0.057.

As for D61K, the abundance fitness is -0.096 ± 0.19.

For the variant D61L, the abundance fitness is -0.185 ± 0.054.

Take D61E: the abundance fitness amounted to 0.186 ± 0.095.

Take D61H: the abundance fitness is -0.145 ± 0.059.

For the variant D61T, the abundance fitness was -0.08 ± 0.077.

A9G: the abundance fitness was -0.443 ± 0.072.

Regarding A9Q, the abundance fitness was -0.821 ± 0.44.

Turning to A9N, the abundance fitness is -0.812 ± 0.14.

Turning to A9V, the abundance fitness is -0.853 ± 0.1.

As to P3S, the abundance fitness is 0.008 ± 0.053.

Take P3I: the abundance fitness was 0.273 ± 0.073.

Take P3R: the abundance fitness was -0.114 ± 0.059.

As for P3L, the abundance fitness turned out to be 0.108 ± 0.071.

With P3H, the abundance fitness was 0.088 ± 0.066.

Regarding P3K, the abundance fitness turned out to be 0.18 ± 0.16.

Take P3E: the abundance fitness was -0.033 ± 0.35.

In the case of V25I, the abundance fitness was -0.142 ± 0.063.

As for V25S, the abundance fitness was -0.448 ± 0.061.

For the variant V25D, the abundance fitness is -0.899 ± 0.12.

V25N: the abundance fitness was -0.736 ± 0.1.

In the case of V25L, the abundance fitness was -0.933 ± 0.13.

As for G42K, the abundance fitness was -0.892 ± 0.19.

Take G42I: the abundance fitness is -0.707 ± 0.16.

Take G42M: the abundance fitness was -0.987 ± 0.34.

Take G42N: the abundance fitness is -0.891 ± 0.12.

Consider G42D, for which the abundance fitness is -0.578 ± 0.094.

In the case of G42R, the abundance fitness is -0.84 ± 0.14.

With R63A, the abundance fitness came to 0.087 ± 0.073.

Take R63S: the abundance fitness was determined as 0.15 ± 0.055.

With R63L, the abundance fitness is -0.005 ± 0.083.

Regarding R63C, the abundance fitness is -0.06 ± 0.062.

On to L44W, for which the abundance fitness was -0.506 ± 0.21.

L44H: the abundance fitness was -0.425 ± 0.15.

Take L44I: the abundance fitness was -0.133 ± 0.074.

As to L44A, the abundance fitness was -0.399 ± 0.11.

Turning to L44D, the abundance fitness was -0.385 ± 0.12.

For L44T, the abundance fitness was -0.416 ± 0.14.

D22E: the abundance fitness is 0.043 ± 0.11.

On to D22G, for which the abundance fitness was -0.02 ± 0.051.

Consider D22A, for which the abundance fitness worked out at 0.25 ± 0.058.

Consider D22F, for which the abundance fitness is -0.016 ± 0.059.

For the variant D22T, the abundance fitness is -0.054 ± 0.062.

For D22R, the abundance fitness was -0.185 ± 0.058.

Take D22S: the abundance fitness is 0.101 ± 0.046.

Regarding K45S, the abundance fitness is -0.296 ± 0.055.

For the variant K45Y, the abundance fitness was -0.347 ± 0.1.

As to K45T, the abundance fitness was -0.791 ± 0.13.

With K45I, the abundance fitness is -0.696 ± 0.095.

K45F: the abundance fitness was -0.32 ± 0.08.

As for S43P, the abundance fitness was -0.945 ± 0.21.

Turning to S43N, the abundance fitness is -0.308 ± 0.064.

Consider S43H, for which the abundance fitness was -0.373 ± 0.089.

As for S43C, the abundance fitness is -0.245 ± 0.069.

On to S43W, for which the abundance fitness is -0.393 ± 0.27.

Turning to S43V, the abundance fitness is -0.326 ± 0.063.

With I31F, the abundance fitness is -0.926 ± 0.12.

In the case of I31N, the abundance fitness is -0.85 ± 0.15.
